In patent publication US8987201B2, “Black bear parathyroid hormone and methods of using black bear parathyroid hormone” (Michigan Technological University, priority 2009, dated 2015):
Marks after values point to notes of the source that are not given here. No end group written: not given here.

Experiments:
[1] = system: rats; conditions: long-term usage; cited from earlier work
[2] = Serum calcium levels in the rat OVX dose response study; type: in vivo; conditions: OVX rats; not significant at the p<0.05 level
Procedure: Ninety female, 3-month old Sprague-Dawley rats were obtained. Eighty (80) of the rats were ovariectomized (OVX) and ten (10) underwent a sham OVX procedure (sham OVX) in which the ovaries were left in the animal. The OVX animals were randomly assigned into groups of ten for further experiments.
Following the actual or sham OVX procedure, all animals were untreated for 6 weeks to allow bone loss. After the 6 week period of bone loss, groups of animals were injected for a six- or eight-week period (daily for five days per week) with vehicle (saline) or 3, 10, or 30 μg/kg bear or human PTH1-34. […] The sham OVX group as well as one group of actual OVX rats were euthanized at six weeks while the remaining animals were euthanized at fourteen weeks following the OVX procedure. Samples were obtained from the euthanized animals for further analysis.

[3] = system: ovariectomized rats; conditions: cited from earlier work
[4] = system: Male Swiss-Webster mice; assay: Cortical bone mineral content (ash fraction) and geometrical properties of the femur; type: in vivo, mouse; conditions: femoral midshaft, 2.5 nmol/kg s.c., 8 weeks, normalized by body mass, SD in parentheses
Excerpt: (§1) All handling procedures and experiments were approved by the Michigan Technological University Institutional Animal Care and Use Committees. Male Swiss-Webster mice were obtained from a commercial breeder (Harlan, Indianapolis, Ind.). All animals were maintained on a 12-h light/12-h dark cycle, and were permitted free access to water and food containing 0.95% calcium (Purina Rodent Diet #5001).
(§2) In the first experiment, 11 wk old mice received daily (5 days/week) subcutaneous injections of 2.5 nmol/kg PTH 1-34 (hPTH 1-34 or bbPTH 1-34) or acidic saline vehicle (0.15 M NaCl+0.001 N HCl) for 8 weeks (n=10 mice/group). In the second experiment, 12 wk old mice received daily (5 days/week) subcutaneous injections of 2.5 nmol/kg PTH 1-84 (hPTH 1-84 or bbPTH 1-84) or acidic saline vehicle for 8 weeks (n=10 mice/group). All PTH- and vehicle-treated animals received subcutaneous injections of calcein at a dosage of 10 mg/kg on days 12 and 3 before death to label mineralizing bone surfaces. Twenty-four hours following the last treatment injection, mice were sacrificed by carbon dioxide asphyxiation. Right femurs were fixed in 10% neutral buffered formalin. Left femurs were wrapped in 0.15M saline soaked gauze and stored at −20 deg C. Left tibias were stored in 70% ethanol at 4 deg C.
(§3) Following the bending test, the left femoral diaphyses were ashed in a furnace to determine mineral content (ash fraction). Right femoral diaphyses were embedded in methyl methacrylate and sectioned with a diamond saw to expose the midshaft cross-section. Images of the midshaft cross-sections were captured using a digital camera (Spot Insight QE, Diagnostic Instruments Inc., Sterling Heights, Mich.), and Scion Image analysis software (Scion Corporation, Frederick, Md.) was used to calculate the periosteal area (Ps.Ar), cortical area (Ct.Ar), and endosteal area (Es.Ar) for each sample. Cortical bone thickness (Ct.Th) was calculated in 0.1 mm increments for each anatomical quadrant and for the entire cross-section using image analysis software (Bioquant Osteo, Nashville, Tenn.). Thin sections from the midshaft of the right femur were ground to a thickness of 50 μm and mounted on glass slides. Images of calcein labels were captured at 100× magnification and periosteal and endosteal mineral apposition rates (Ps.MAR and Es.MAR, respectively) and mineralizing surfaces (Ps.MS/BS and Es.MS/MS) were quantified (Bioquant) for each femur.
(§4) All bone geometrical, architectural, and mineral properties were normalized by body mass to account for potential variation in animal size (31-33). Trabecular bone properties quantified by micro-computed tomography were compared by ANOVA between vehicle, bear, and human PTH-treated mice within each study (PTH 1-34 or PTH 1-84). The microCT parameters were not directly compared between the PTH 1-34 and PTH 1-84 studies because analyses were conducted on different microCT machines. For all other bone properties, all six experimental groups (from both the PTH 1-34 and PTH 1-84 studies) were compared with ANOVA and Fisher's PLSD. A significance of p<0.05 was used for all comparisons.

[5] = system: human fetal osteoblasts (hFOB); assay: Serum starvation cell death in human fetal osteoblasts (trypan blue); type: cell-based; conditions: 100 nM for 1 hour before serum starvation for 24 hours, preliminary studies, p<0.0001
Procedure: All PTH peptides used in the current study attenuated apoptotic signaling induced by serum starvation in vitro (FIG. 19). bbPTH 1-34 reduced apoptotic signaling in pre-osteoblastic cells more than human PTH (FIG. 19). Recently, we found similar results with preliminary studies in human fetal osteoblasts (hFOB). Serum starvation for 24 hours increased cell death in hFOB (confirmed via trypan blue staining), but pretreatment of hFOB cells with 100 nM PTH 1-34 or 1-84 for 1 hour before starvation reduced percent cell death (percentage change in cell death compared to vehicle pretreatment, hPTH 1-34: −18%, bbPTH 1-34: −25%, hPTH 1-84: −17%, bbPTH 1-84: −21%; p<0.0001; data not shown). […] However, although bbPTH 1-84 was less anti-apoptotic than bbPTH 1-34 and hPTH 1-34 in vitro (FIG. 19) it caused the greatest increases in cortical and trabecular bone mass in the in vivo studies (Table 1, Table 2).

[6] = system: Male Swiss-Webster mice; assay: Cortical bone mechanical properties of the femur (3-point bending); type: in vivo, mouse; conditions: 2.5 nmol/kg, 8 weeks
Excerpt: as §1
In the first experiment, 11 wk old mice received daily (5 days/week) subcutaneous injections of 2.5 nmol/kg PTH 1-34 (hPTH 1-34 or bbPTH 1-34) or acidic saline vehicle (0.15 M NaCl+0.001 N HCl) for 8 weeks (n=10 mice/group). In the second experiment, 12 wk old mice received daily (5 days/week) subcutaneous injections of 2.5 nmol/kg PTH 1-84 (hPTH 1-84 or bbPTH 1-84) or acidic saline vehicle for 8 weeks (n=10 mice/group). […]
Left femurs were loaded to failure in 3-point bending on an Instron mechanical testing system (Model #8872, Canton, Mass.) at a rate of 1 mm/min. […] Ultimate load was calculated using the load-deformation data from testing.
All bone geometrical, architectural, and mineral properties were normalized by body mass to account for potential variation in animal size (31-33). Trabecular bone properties quantified by micro-computed tomography were compared by ANOVA between vehicle, bear, and human PTH-treated mice within each study (PTH 1-34 or PTH 1-84). […]

[7] = system: ovariectomized (OVX) Sprague-Dawley rats; assay: In vivo effects of human PTH1-84 and bear PTH1-84 in ovariectomized rats; set-up: species or system rat; conditions: 2.5 nmol/kg s.c., eight weeks
Procedure: Thirty female, 2.5-month old Sprague-Dawley rats were ovariectomized (OVX) at the commercial breeding facility The OVX animals were randomly assigned into 3 groups of 10 animals per group for further experiments.
Six weeks after the OVX procedure, the rats were injected subcutaneously for an eight-week period (daily for five days per week) with vehicle (saline) or 2.5 nmol/kg bear or human PTH1-84. Animals were euthanized 24 hours after the last injection. Samples were obtained from the euthanized animals for further analysis.
Femur bending strength and proximal tibia trabecular architecture were investigated as described in Example 12.

[8] = system: Male Swiss-Webster mice; assay: Trabecular bone structure and mineralization in the proximal tibia (micro-computed tomography); type: in vivo, mouse; conditions: 8 weeks
Excerpt: as §1, §2
Trabecular bone architecture and mineralization were evaluated in the left proximal tibial metaphysis (0.7 mm distal to the growth plate) using micro-computed tomography. Tibias from experiment 1 were scanned on a μCT35 scanner (Scanco Medical AG, Basserdorf, Switzerland) at 3.5 μm (high) resolution. Tibias from experiment 2 were scanned on a μCT40 scanner (Scanco Medical AG, Basserdorf, Switzerland) at 7 μm (high) resolution. Bones were scanned in 70% ethanol. Trabecular bone volume fraction (BV/TV, %), trabecular number (Tb.N, mm^−1), trabecular thickness (Tb.Th, m), trabecular separation (Tb.Sp, m), trabecular apparent mineral density (App.Mn.Dn, mgHA/cm^3) and trabecular tissue mineral density (Mat.Mn.Dn, mgHA/cm^3) were computed using the manufacturer's software.
as §4

[9] = system: Male Swiss-Webster mice; assay: Cortical bone dynamic histomorphometry in the femur (calcein labels); type: in vivo, mouse; conditions: femoral midshaft, 2.5 nmol/kg s.c., 8 weeks, SD in parentheses
Excerpt: as §1, §2, §3, §4

[10] = PTH 1-84 study: 12 wk old mice, 2.5 nmol/kg s.c., proximal tibia, normalized by body mass

CC[C@H](C)[C@H](NC(=O)[C@H](CCC(=O)O)NC(=O)[C@H](CO)NC(=O)[C@@H](NC(=O)[C@@H](N)CO)C(C)C)C(=O)N[C@@H](CCC(N)=O)C(=O)N[C@@H](CC(C)C)C(=O)N[C@@H](CCSC)C(=O)N[C@@H](Cc1cnc[nH]1)C(=O)N[C@@H](CC(N)=O)C(=O)N[C@@H](CC(C)C)C(=O)NCC(=O)N[C@@H](CCCCN)C(=O)N[C@@H](Cc1cnc[nH]1)C(=O)N[C@@H](CC(C)C)C(=O)N[C@@H](CC(N)=O)C(=O)N[C@@H](CO)C(=O)N[C@@H](CCSC)C(=O)N[C@@H](CCC(=O)O)C(=O)N[C@@H](CCCN=C(N)N)C(=O)N[C@H](C(=O)N[C@@H](CCC(=O)O)C(=O)N[C@@H](Cc1c[nH]c2ccccc12)C(=O)N[C@@H](CC(C)C)C(=O)N[C@@H](CCCN=C(N)N)C(=O)N[C@@H](CCCCN)C(=O)N[C@@H](CCCCN)C(=O)N[C@@H](CC(C)C)C(=O)N[C@@H](CCC(N)=O)C(=O)N[C@@H](CC(=O)O)C(=O)N[C@H](C(=O)N[C@@H](Cc1cnc[nH]1)C(=O)N[C@@H](CC(N)=O)C(=O)N[C@@H](Cc1ccccc1)C(=O)O)C(C)C)C(C)C [LY333334]
osteosarcoma in rats [1]: generates osteosarcoma

SVSEIQFMHNLGKHLSSMERVEWLRKKLQDVHNF [bbPTH 1-34, black bear PTH 1-34]
serum calcium levels compared to human PTH1-34 [2]: lower

bovine PTH 1-34 (AVSEIQFMHNLGKHLSSMERVEWLRKKLQDVHNF; Parathyroid hormone; UniProt P01268 32-65, looked up, fragment) [1-34 fragment of bovine PTH]
greater bone formation response than to rat PTH 1-34 ([3]; daily 25 μg injections): 25%
greater increase in bone volume fraction during treatment ([3]; injection): 37%

B1: black bear PTH1-84 (protein, listed as Ursus americanus)
chain: SVSEIQFMHNLGKHLSSMERVEWLRKKLQDVHNFVALGAPTAHRDGGSQRPQKKEDNVLVENHQKSLGEADKADVDVLTKAKSQ
Ct.Ar [4]: 31.7 (3.7) mm^2/kg
Ct.Th [4]: 3.56 (0.42)^a mm/kg
Es.Ar [4]: 26.6 (4.6) mm^2/kg
Ps.Ar [4]: 58.3 (5.0)^a,b mm^2/kg
percentage change in cell death compared to vehicle pretreatment [5]: −21%
increase in bone strength (ultimate load of the femur), bear peptide compared to the corresponding human peptide [6]: significantly (p=0.032) greater
increase of femoral ultimate load over vehicle treatment ([6]; only for this peptide): statistically significant
bone volume fraction / trabecular bone volume [7]: equivalently increase
increases in cortical bone strength compared to hPTH1-84 [7]: greater increases
ultimate load of the femur compared to vehicle treatment [7]: significantly (p=0.013) increased
BV/TV ([8]; PTH 1-84 study: 12 wk old mice, 2.5 nmol/kg s.c. daily 5 days/week, proximal tibia, normalized by body mass): 2.26 %/kg
App. Mn. Dn [8, 10]: 3665 mgHA/(cm^3*kg)
Mat. Mn. Dn. [8, 10]: 30552 mgHA/(cm^3*kg)
Tb. N [8, 10]: 113.8 1/mm*kg
Tb. Sp [8, 10]: 8.47 mm/kg
Tb. Th [8, 10]: 1.38 mm/kg
trabecular apparent mineral density compared to other treatments ([8]; mice, 2.5 nmol/kg, bbPTH 1-84 vs hPTH 1-84 p=0.019): highest
trabecular bone volume fraction and apparent mineral density over vehicle treatment ([8]; mice, 2.5 nmol/kg, only this peptide): significantly increased over vehicle treatment
bone volume fraction in the proximal tibia compared to hPTH 1-84 ([8]; mice, 2.5 nmol/kg, p=0.013): greater
Endosteal MAR [9]: 0.59 (0.42)
Endosteal MS/BS [9]: 24.5 (17.2)
Periosteal MAR [9]: 0.62 (0.33)
Periosteal MS/BS [9]: 31.3 (22.5)
